Reference: patent US20260224618A1 (ORICELL THERAPEUTICS, published 2026)

Assays:
Human MSLN-His antigen [1] = molecular target: T1, Human MSLN-His antigen (human, UniProt Q13421 296-580, limits assumed); assay: ELISA, plate coated with 2 ug/ml MSLN-His, VHH-Fc diluted 2.5-fold from 200 nM, anti-human IgG Fc HRP, OD450
T1 construct: also called MSLN-his protein; human MSLN protein; not shown: His tag
Experimental: (§1) A high-absorption 384-well plate was coated with 2 μg/ml of MSLN-His […], and left standing at 4° C. overnight. The plate was washed three times with 1×PBST, and blocked with 5% of skimmed milk at room temperature for 2 h. During the blocking, the antibody MSLN-VHH was diluted 2.5-fold starting from a concentration of 200 nM for a total of 11 gradients. At the end of blocking, the plate was washed three times with 1×PT, into which were added corresponding diluted primary antibodies at 30 μl/well and incubated with shaking at room temperature for 1 h. The plate was washed three times with 1×PBST, into which were then added secondary antibodies Anti-human IgG Fc Antibody HRP (abcam, Item No. ab99759) and incubated at room temperature for 30-60 min. The plate was washed seven times with 1×PBST, into which was then added a TMB developer, and 2M phosphoric acid was added 3-5 min later to stop the reaction. The absorbance was read at a wavelength of 450 nm.

Human MSLN-His antigen [2] = molecular target: T1, Human MSLN-His antigen; assay: ELISA, plate coated with 2 ug/ml MSLN-His, antibody diluted 2.5-fold from 200 nM, anti-human IgG Fc HRP, OD450
Experimental: as §1

Human MSLN-His antigen [3] = molecular target: T1, Human MSLN-His antigen; assay: BLI (ForteBio), AHC probe, nanobody at 100 nM, human MSLN-His 2-fold diluted from 100 nM
Experimental: MSLN nanobodies with flow cytometric binding activity were diluted to 100 nM and added into a 384-well plate. Human MSLN-His antigens were 2-fold diluted to 100 nM for a total of 7 gradients, and added into a 384-well plate. An AHC probe (Sartorius, Item No. 18-5060) was used, with the binding time set to 180 sec, the dissociation time to 360 sec, the baseline to 60 sec, and the regeneration cycle to three times, each for 5 sec. After then, the binding-dissociation curve was fitted using software to calculate the affinity of the antibodies.

T1 sequence (Q13421 other isoform, or with tags, fused parts or gaps limits assumed): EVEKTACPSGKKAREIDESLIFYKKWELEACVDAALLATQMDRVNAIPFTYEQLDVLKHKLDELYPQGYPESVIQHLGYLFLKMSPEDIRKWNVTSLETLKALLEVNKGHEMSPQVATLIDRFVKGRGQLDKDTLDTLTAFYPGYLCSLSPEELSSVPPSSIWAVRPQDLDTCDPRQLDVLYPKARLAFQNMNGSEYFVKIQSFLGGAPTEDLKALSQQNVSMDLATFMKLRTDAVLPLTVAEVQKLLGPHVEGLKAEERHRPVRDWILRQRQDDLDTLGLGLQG

Binder	EC50 (read off the curve) (Human MSLN-His antigen [1]) [nM]	EC50 (read off the curve) (Human MSLN-His antigen [2]) [nM]	Kd (Human MSLN-His antigen [3]) [nM]
MSLN45 VHH-Fc fusion protein (Fc fusion, Tested as bivalent VHH-Fc expressed in EXPI293 and detected with anti-human IgG Fc; also called MSLN-VHH; MSLN nanobody 45; not shown: Fc of the VHH-Fc fusion) QVQLQESGGGLVQPGGSLRLSCAASGSIFSINAMGWYRQPPGKQRELVAATSWGGRTNYADSVEGRFTISRDNAKNTVYLQMNSLKPEDTAVYYCKLWDGSSWDIYWGQGTQVTVSS	~0.7	–	–
MSLN51 VHH-Fc fusion protein (Fc fusion, Tested as bivalent VHH-Fc expressed in EXPI293; also called MSLN-VHH; MSLN nanobody 51; not shown: Fc of the VHH-Fc fusion) QVQLQESGGGLVQTGGSLRLSCAASGSIFSINAMGWYRQPPGKQRELVAATSWGGRTNYADSVEGRFTISRDNAKNTVYLQMNSLKPEDTAVYYCKLWDGSSWDIYWGQGTQVTVSS	~0.8	–	–
MSLN55 VHH-Fc fusion protein (Fc fusion, Tested as bivalent VHH-Fc expressed in EXPI293; also called MSLN-VHH; MSLN nanobody 55; not shown: Fc of the VHH-Fc fusion) QVQLQESGGGLVQSGGSLKLSCAASGNIASINAMGWYRQPPGKQRELVAATSWGGRTNYADSVEGRFTISRDNAKNTVYLQMNSLKPEDTAVYYCKLWDGSSWDIYWGQGTQVTVSS	~0.5	–	–
MSLN47 VHH-Fc fusion protein (Fc fusion, Tested as bivalent VHH-Fc expressed in EXPI293; also called MSLN-VHH; MSLN nanobody 47; not shown: Fc of the VHH-Fc fusion) QVQLQESGGGLVQAGGSLRLSCAASGSIFSINAMGWYRQPPGKQRELVAATSWGGRTNYADSVEGRFTISRDNAKNTVYLQMNSLKPEDTAVYYCKLWDGSSWDIYWGQGTQVTVSS	~0.8	–	–
MSLN50 VHH-Fc fusion protein (Fc fusion, Tested as bivalent VHH-Fc expressed in EXPI293; also called MSLN-VHH; MSLN nanobody 50; not shown: Fc of the VHH-Fc fusion) QVQLQESGGGLVQPGGSLRLSCAASGSISKIAIMGWYRQPPGNERELIAIANMTGTGVYRDTVKGRFTIRRDNAKNMVYLQMNNLKSEDTGVYYCHARQLGVGSFESWGQGTQVTVSS	~10	–	–
MSLN48 VHH-Fc fusion protein (Fc fusion, Tested as bivalent VHH-Fc expressed in EXPI293; also called MSLN-VHH; MSLN nanobody 48; not shown: Fc of the VHH-Fc fusion) QVQLQESGGGLVQPGGSLRLSCAASESIFSNYSASWYRQAPGKQRELVATIARTGSAFHLGSVKGRFTISRDNAKRTVYLQMNSLLPEDTAVYYCNVWDSWGQGTQVTVSS	~7	–	–
MSLN46 VHH-Fc fusion protein (Fc fusion, Tested as bivalent VHH-Fc expressed in EXPI293; also called MSLN-VHH; MSLN nanobody 46; not shown: Fc of the VHH-Fc fusion) QVQLQESGGGLVQAGGSLRLSCEASGHTDSYYPKAWFRQAPGKEREFVASIGWGGRMTAYADSVKGRFTVSRTYAKNTVYLQMNSLKPEDTAVYYCAAGIGWAPTADSGEYDYWGQGTQVTVSS	~1	–	2.15
MSLN52 VHH-Fc fusion protein (Fc fusion, Tested as bivalent VHH-Fc expressed in EXPI293; also called MSLN-VHH; MSLN nanobody 52; not shown: Fc of the VHH-Fc fusion) QVQLQESGGGLVQAGGSLSLSCAASGHTDSYYPKAWFRQAPGKEREFVASIGWGGRMTAYADSVKGRFTVSRTYAKNTVYLQMNSLKPEDTAVYYCAAGIGWAPTADSGEYDYWGQGTQVTVSS	~1	–	2.58
MSLN53 VHH-Fc fusion protein (Fc fusion, Tested as bivalent VHH-Fc expressed in EXPI293; also called MLSN-53; MSLN-VHH; not shown: Fc of the VHH-Fc fusion) QVQLQESGGGLVQPGGSLTLSCEASGHTDSYYPKAWFRQAPGKEREFVASIGWGGRMTAYADSVKGRFTVSRTYAKNTVYLQMNSLKPEDTAVYYCAAGIGWAPTADSGEYDYWGQGTQVTVSS	~0.8	–	1.41

Now from value to binder:

EC50 (read off the curve) (Human MSLN-His antigen [1]) [nM]	EC50 (read off the curve) (Human MSLN-His antigen [2]) [nM]	Kd (Human MSLN-His antigen [3]) [nM]	Binder
~0.6	–	–	MSLN57 VHH-Fc fusion protein (Fc fusion, Tested as bivalent VHH-Fc expressed in EXPI293; also called MSLN-VHH; MSLN nanobody 57; not shown: Fc of the VHH-Fc fusion) QVQLQESGGGMVQPGGSLRLSCAASGSIFSINAMGWYRQPPGKQRELVAATSWGGRTNYADSVEGRFTISRDNAKNTVYLQMNSLKPEDTAVYYCKLWDGSSWDIYWGQGTQVTVSS
~0.5	–	–	MSLN59 VHH-Fc fusion protein (Fc fusion, Tested as bivalent VHH-Fc expressed in EXPI293; also called MSLN-VHH; MSLN nanobody 59; not shown: Fc of the VHH-Fc fusion) QVQLQESGGGLVQPGGSLRLSCTASKRIDSINAMGWYRQPPGKQRELVAATSWGGRTNYADSVEGRFTISRDNAKNTVYLQMNSLKPEDTAVYYCKLWDGSSWDIYWGQGTQVTVSS
~0.4	–	–	MSLN58 VHH-Fc fusion protein (Fc fusion, Tested as bivalent VHH-Fc expressed in EXPI293; also called MSLN-VHH; MSLN nanobody 58; not shown: Fc of the VHH-Fc fusion) QVQLQESGGGTVQPGGSLRLSCEAVGDSVSINAMGWYRQPPGKQRELVAATSWGGRTNYADSVEGRFTISRDNAKNTVYLQMNSLKPEDTAVYYCKLWDGSSWDIYWGQGTQVTVSS
–	~0.8	–	positive control antibody P4 (antibody, V domains shown, an AHC probe was used in the ForteBio assay; also called positive antibody P4) VH: QVQLQQSGPGLVTPSQTLSLTCAISGDSVSSNSATWNWIRQSPSRGLEWLGRTYYRSKWYNDYAVSVKSRMSINPDTSKNQFSLQLNSVTPEDTAVYYCARGMMTYYYGMDVWGQGTTVTVSS VL: QPVLTQSSSLSASPGASASLTCTLRSGINVGPYRIYWYQQKPGSPPQYLLNYKSDSDKQQGSGVPSRFSGSKDASANAGVLLISGLRSEDEADYYCMIWHSSAAVFGGGTQLTVLS
